Source: publication PMC6825194

Columns and labels:
[1] = target: CCM1-K8; assay: BLI; GST-tagged fragments from PTB domains and HIS-tagged NPXY motifs, purified; Table 5 heads CCM1-K8 as 'Ligand'; who was immobilised and the conditions are not stated (as in ref. 20)
[2] = target: CCM1-K2; assay: ITC; GST-tagged fragments from PTB domains and HIS-tagged NPXY motifs, purified; Table 5 heads CCM1-K8 and CCM1-K2 as 'Ligand'; conditions not stated (as in ref. 20)
[3] = target: CCM1-K8; assay: as above

Question: How did the Kd [1] turn out when “CCM2-EX6 (from UniProt Q9BSQ5 1-444) (domain or fragment)” was run?
Answer: The Kd was 4.06 µM.

Question: And the Kd [2]?
Answer: The Kd was 6.45 µM.

Question: And the Kd [3]?
Answer: Its Kd is 1.99 µM.
